Laboratory results from article PMC6848426 (Rice, 2019).

Target: T1, GST-OsSGT1 (rice (Oryza sativa L.), UniProt Q0JL44 1-367)
T1 sequence (looked up): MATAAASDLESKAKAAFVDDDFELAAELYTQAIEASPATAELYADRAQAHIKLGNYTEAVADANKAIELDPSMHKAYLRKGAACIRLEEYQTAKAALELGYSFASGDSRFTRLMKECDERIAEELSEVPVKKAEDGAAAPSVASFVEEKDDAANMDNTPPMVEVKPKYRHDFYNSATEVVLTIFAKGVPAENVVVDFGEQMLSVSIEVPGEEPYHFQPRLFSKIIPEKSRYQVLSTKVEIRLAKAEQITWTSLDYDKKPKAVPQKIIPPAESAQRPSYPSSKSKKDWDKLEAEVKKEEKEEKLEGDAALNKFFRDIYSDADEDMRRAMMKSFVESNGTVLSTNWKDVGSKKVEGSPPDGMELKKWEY
Test: pull-down; GST-, GST-fusion-coupled beads used to capture the His tag or His-OsSAPK9; detection with HRP-conjugated anti-His antibody
Conditions: both partners purified

B1: His-OsSAPK9 (natural protein, rice (Oryza sativa L.), UniProt Q75V57 1-361, looked up)
chain: MERAAAGPLGMEMPIMHDGDRYELVKEIGSGNFGVARLMRNRASGDLVAVKYIDRGEKIDENVQREIINHRSLRHPNIIRFKEVILTPTHLAIVMEYASGGELFERICSAGRFSEDEARFFFQQLISGVSYCHSMQVCHRDLKLENTLLDGSTAPRLKICDFGYSKSSVLHSQPKSTVGTPAYIAPEVLLKKEYDGKIADVWSCGVTLYVMLVGAYPFEDPEDPKNFRKTIQKILGVQYSIPDYVHISPECRDLITRIFVGNPASRITMPEIKNHPWFMKNIPADLMDDGMVSNQYEEPDQPMQNMNEIMQILAEATIPAAGTSGINQFLTDSLDLDDDMEDMDSDLDLDIESSGEIVYAM
notes: also called histidine-tagged OsSAPK9 protein
binding result: binds
